Assay results as given in paper PMC11784077.

Key:
Assay in all cases: non-reducing gel electrophoresis with western blot (trimerization assay); BmN cells expressing GP64 or CARC mutants harvested, lysed in PBS (pH 7.4), separated on 10% nonreducing polyacrylamide gel, blotted with anti-GP64 (AcV5)
[1] = molecular target: BmNPV GP64 F235A (CARC5 mutant) (Bombyx mori nucleopolyhedrovirus (BmNPV)) (UniProt P41722)
[2] = molecular target: BmNPV GP64 W299A (CARC6 mutant) (Bombyx mori nucleopolyhedrovirus (BmNPV)) (UniProt P41722)
[3] = molecular target: BmNPV GP64 Y49A (CARC1 mutant) (Bombyx mori nucleopolyhedrovirus (BmNPV)) (UniProt P41722)
[4] = molecular target: BmNPV GP64 W154A (CARC2 mutant) (Bombyx mori nucleopolyhedrovirus (BmNPV)) (UniProt P41722)
[5] = molecular target: BmNPV GP64 Y188A (CARC4 mutant) (Bombyx mori nucleopolyhedrovirus (BmNPV)) (UniProt P41722)
[6] = molecular target: BmNPV GP64 W178A (CARC3 mutant) (Bombyx mori nucleopolyhedrovirus (BmNPV)) (UniProt P41722)
[7] = molecular target: BmNPV GP64 (wild type, signal peptide retained) (Bombyx mori nucleopolyhedrovirus (BmNPV)) (UniProt P41722)

BmNPV GP64 F235A (CARC5 mutant) (from UniProt P41722 1-37) (natural protein)
stoichiometry N [1]: 3

BmNPV GP64 W299A (CARC6 mutant) (from UniProt P41722 1-37) (natural protein)
stoichiometry N [2]: 3

BmNPV GP64 Y49A (CARC1 mutant) (from UniProt P41722 1-37) (natural protein)
stoichiometry N [3]: 3

BmNPV GP64 W154A (CARC2 mutant) (from UniProt P41722 1-37) (natural protein)
stoichiometry N [4]: 3

BmNPV GP64 Y188A (CARC4 mutant) (from UniProt P41722 1-37) (natural protein)
stoichiometry N [5]: 3

BmNPV GP64 W178A (CARC3 mutant) (from UniProt P41722 1-37) (natural protein)
stoichiometry N [6]: 3

BmNPV GP64 (wild type, signal peptide retained) (from UniProt P41722 1-37) (natural protein)
stoichiometry N [7]: 3
